From patent publication US20140045211

Tests used:
[1] = target: 3D3 ubiquitin-CCL7 fusion (ubiquitin I3L, V17L, I23V)
[2] = target: 2D6 ubiquitin-CCL7 fusion

B1: Usp2-cc (catalytic core of the mouse deubiquitylating enzyme Usp2) (protein)
chain: SKSAQGLAGLRNLGNTCFMNSILQCLSNTRELRDYCLQRLYMRDLGHTSSAHTALMEEFAKLIQTIWTSSPNDVVSPSEFKTQIQRYAPRFMGYNQQDAQEFLRFLLDGLHNEVNRVAARPKASPETLDHLPDEEKGRQMWRKYLEREDSRIGDLFVGQLKSSLTCTDCGYCSTVFDPFWDLSLPIAKRGYPEVTLMDCMRLFTKEDILDGDEKPTCCRCRARKRCIKKFSVQRFPKILVLHLKRFSESRIRTSKLTTFVNFPLRDLDLREFASENTNHAVYNLYAVSNHSGTTMGGHYTAYCRSPVTGEWHTFNDSSVTPMSSSQVRTSDAYLLFYELASPPSRM
[1]
  Usp2-cc cleavage time course (SDS-PAGE): 3D3 ubiquitin (3D3-CCL7) was recognized and cleaved with efficiency similar to that observed for wildtype ubiquitin (WT-CCL7)
[2]
  Usp2-cc cleavage time course (SDS-PAGE): the 2D6 fusion (2D6-CCL7) was only partially cleavable, with large amounts of fusion remaining uncleaved after 12 hr
